The values below are quoted from earlier work in article PMC6109845.

pKd: −log10 of the molar value.

For this data set, the target named is HIF-1α 19-mer peptide (Homo sapiens) (UniProt Q16665).

Chain of von Hippel-Lindau E3 ubiquitin ligase (VHL) (P40337 whole entry): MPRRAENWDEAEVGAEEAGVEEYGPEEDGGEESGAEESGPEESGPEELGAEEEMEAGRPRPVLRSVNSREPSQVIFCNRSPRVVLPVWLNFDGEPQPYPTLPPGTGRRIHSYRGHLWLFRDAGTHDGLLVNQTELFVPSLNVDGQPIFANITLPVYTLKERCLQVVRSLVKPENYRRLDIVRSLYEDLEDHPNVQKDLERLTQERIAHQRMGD

Turning to “von Hippel-Lindau E3 ubiquitin ligase (VHL) (from UniProt P40337)”, the pKd (commonly the Kd on a negative log10 scale, so that one unit is a factor of ten) was 8.52.
